Laboratory results: patent US20120321609A1, “METHOD OF TREATING PSYCHOLOGICAL DISORDERS” (priority 2011, published 2012)

Legend:
[1] = system: slices prepared from prefrontal cortex; experiment: Inositol phosphate formation in prefrontal cortex slices; assay type: cell-based, mouse; details: CRF 500 nM pretreatment
Experimental: Slices were incubated for 15 min at 37° C. […] (final volume=270 μl).

5-HT2CR = target: T1, 5-HT2CR (Homo sapiens, UniProt P28335); experiment: 5-HT-stimulated inositol phosphate formation in HEK 293 cells transfected with FLAG-5-HT2CR and HA-CRFR1; assay type: cell-based
T1 construct: expressed in transfected cells; host or cells: HEK 293
T1 sequence (P28335 33-458): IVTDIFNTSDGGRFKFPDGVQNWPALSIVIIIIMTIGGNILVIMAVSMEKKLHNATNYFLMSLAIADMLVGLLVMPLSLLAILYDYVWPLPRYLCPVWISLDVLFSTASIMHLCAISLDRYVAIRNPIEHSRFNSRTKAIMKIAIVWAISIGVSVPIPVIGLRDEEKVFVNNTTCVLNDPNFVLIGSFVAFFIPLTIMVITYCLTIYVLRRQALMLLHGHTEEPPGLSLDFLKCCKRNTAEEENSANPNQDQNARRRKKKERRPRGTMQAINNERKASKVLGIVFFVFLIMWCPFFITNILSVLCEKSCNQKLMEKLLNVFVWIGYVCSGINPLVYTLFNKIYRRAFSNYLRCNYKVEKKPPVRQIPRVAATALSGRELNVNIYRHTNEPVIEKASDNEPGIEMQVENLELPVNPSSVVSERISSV

ERK1/2 = ERK1/2 phosphorylation immunoblot in HEK 293 cells; assay type: cell-based, human; details: 500 nM CRF; 0, 2, 5, 15 and 30 min
Experimental: Following transfection, HEK 293 cells were re-seeded into 6-well plates. […] Cells were lysed with lysis buffer (50 mM Tris, pH 8.0, 150 mM NaCl, and 0.1% Triton X-100) containing protease inhibitors (1 mM AEBSF, 10 μg/ml leupeptin, and 5 μg/ml aprotinin) for 20 min on a rocking platform at 4° C. Samples were collected into 1.5 mL Eppendorf tubes and centrifuged at 15,000 g for 15 min at 4° C. to pellet insoluble material. A […] protein assay was performed and 50 μg of protein was incubated overnight at room temperature in 3×SDS Loading Buffer containing 2-mercaptoethanol. Samples were separated by SDS-PAGE, transferred to a nitrocellulose membrane, and immunoblotted for ERK1/2 (rabbit anti-p44/42 mitogen-activated protein kinase (MAPK), 1:1000), phospho-ERK1/2 (rabbit anti-phospho-p44/42 MAPK, 1:1000), SAP97 (mouse anti-SAP97, 1:1000), and HA-CRFR1 expression (mouse anti-HA, 1:1000), followed by a horseradish peroxidase-conjugated secondary anti-rabbit antibody (1:10,000) or anti-mouse antibody (1:10,000) where appropriate. Proteins were detected using chemiluminescence with the enhanced chemiluminescence kit from GE Healthcare.

5-HT2AR = target: T2, 5-HT2AR (Homo sapiens, UniProt P28223); experiment: 5-HT-stimulated inositol phosphate formation in HEK 293 cells transfected with FLAG-5-HT2AR and HA-CRFR1; assay type: cell-based
T2 construct: expressed in transfected cells; host or cells: HEK 293
T2 sequence (P28223 whole entry): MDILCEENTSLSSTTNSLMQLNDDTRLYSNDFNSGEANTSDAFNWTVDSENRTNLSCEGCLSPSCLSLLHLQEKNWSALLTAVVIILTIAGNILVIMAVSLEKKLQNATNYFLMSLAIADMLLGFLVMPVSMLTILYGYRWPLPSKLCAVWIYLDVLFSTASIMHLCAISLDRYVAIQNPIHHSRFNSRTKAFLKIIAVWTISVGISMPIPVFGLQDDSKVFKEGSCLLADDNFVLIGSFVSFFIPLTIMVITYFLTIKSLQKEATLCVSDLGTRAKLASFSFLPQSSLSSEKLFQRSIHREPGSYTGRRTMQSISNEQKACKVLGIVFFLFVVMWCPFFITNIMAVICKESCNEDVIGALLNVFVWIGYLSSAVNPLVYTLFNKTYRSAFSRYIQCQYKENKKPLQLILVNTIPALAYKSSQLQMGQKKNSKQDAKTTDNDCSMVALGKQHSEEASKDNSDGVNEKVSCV

Substance: CRF: 41 amino acid peptide that activates the HPA axis; agonist of CRF receptors
- increase in 5-HT-stimulated inositol phosphate formation ([1]; stimulated with 5-HT): 2.3±0.2 fold
- increase in DOI-stimulated inositol phosphate formation ([1]; stimulated with DOI 10 μM): 1.5±0.2 fold
- inositol phosphate formation by CRF treatment itself (5-HT2CR; CRF 500 nM 30 min, cells expressing 5-HT2CR alone, CRFR1 alone or both receptors): did not result in inositol phosphate formation
- increase in maximum efficacy (EMAX) for 5-HT2CR-stimulated inositol phosphate formation (5-HT2CR; CRF pretreatment 500 nM for 30 min, cells expressing 5-HT2CR along with CRFR1): 47±5.5%
- effect of pretreatment on 5-HT dose-response curve for inositol phosphate formation, 5-HT2CR (5-HT2CR; HEK 293 cells expressing 5-HT2CR in the absence of CRFR1, CRF 500 nM 30 min): had no effect
- ERK1/2 phosphorylation in cells transfected with HA-CRFR1 and scrambled shRNA (ERK1/2): more robust and sustained activation
- ERK1/2 phosphorylation in non-transfected HEK 293 cells (ERK1/2): increase in detectable ERK1/2 phosphorylation at 5 min
- increase in maximum efficacy (EMAX) for 5-HT2AR-stimulated inositol phosphate formation (5-HT2AR; CRF pretreatment 500 nM for 30 min, cells expressing 5-HT2AR along with CRFR1): 40±4.7%
- effect of pretreatment on 5-HT dose-response curve for inositol phosphate formation, 5-HT2AR (5-HT2AR; HEK 293 cells expressing 5-HT2AR in the absence of CRFR1, CRF 500 nM 30 min): had no effect
